Tested on: Escherichia coli TOP10
Test: shrunken log2 fold change of peptide-encoding DNA abundance (4.5 h post-induction vs induction); higher = less antimicrobial activity (less host growth inhibition)
Settings: time post-induction: 4.5 h; library: site-saturation at positions 5, 18, 19, 20
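Further: peptides expressed intracellularly from a pBAD plasmid library in pooled LB shake-flask culture, induced with 0.3% L-arabinose, DNA abundance read by NGS, three biological replicates, DESeq2 with apeglm shrinkage.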

Row | Sequence | shrunken log2 fold change
1 | RRIRDRPPRLPRPRPRPLLTPRP | 0.35
2 | RRIRDRPPRLPRPRPRPLMAPRP | 1.09
3 | RRIRDRPPRLPRPRPRPLNLPRP | -0.324
4 | RRIRDRPPRLPRPRPRPLPEPRP | 0.0958
5 | RRIRDRPPRLPRPRPRPLPWPRP | 0.572
6 | RRIRDRPPRLPRPRPRPLQVPRP | 0.0133
7 | RRIRDRPPRLPRPRPRPLREPRP | 0.714
8 | RRIRDRPPRLPRPRPRPLRIPRP | 0.168
9 | RRIRDRPPRLPRPRPRPLSMPRP | -0.283
10 | RRIRDRPPRLPRPRPRPLTMPRP | 0.188
11 | RRIRDRPPRLPRPRPRPLYHPRP | -0.54
12 | RRIRDRPPRLPRPRPRPMAAPRP | 0.0982
13 | RRIRDRPPRLPRPRPRPMACPRP | -0.00146
14 | RRIRDRPPRLPRPRPRPMAIPRP | 0.00911
15 | RRIRDRPPRLPRPRPRPMCFPRP | 0.0878
16 | RRIRDRPPRLPRPRPRPMCPPRP | 0.00942
17 | RRIRDRPPRLPRPRPRPMCVPRP | 0.101
18 | RRIRDRPPRLPRPRPRPMFHPRP | -0.0543
19 | RRIRDRPPRLPRPRPRPMFPPRP | -0.257
20 | RRIRDRPPRLPRPRPRPMFQPRP | -0.0111
21 | RRIRDRPPRLPRPRPRPMHNPRP | -0.696
22 | RRIRDRPPRLPRPRPRPMISPRP | 0.185
23 | RRIRDRPPRLPRPRPRPMIWPRP | -0.0952
24 | RRIRDRPPRLPRPRPRPMKMPRP | 0.0275
25 | RRIRDRPPRLPRPRPRPMKNPRP | -0.0366
26 | RRIRDRPPRLPRPRPRPMLEPRP | 0.358
27 | RRIRDRPPRLPRPRPRPMMVPRP | 0.0541
28 | RRIRDRPPRLPRPRPRPMQIPRP | 0.0565

Row | Sequence | shrunken log2 fold change
29 | RRIRDRPPRLPRPRPRPMRIPRP | -0.0494
30 | RRIRDRPPRLPRPRPRPMTGPRP | 0.0274
31 | RRIRDRPPRLPRPRPRPMTYPRP | -0.109
32 | RRIRDRPPRLPRPRPRPMWAPRP | -0.0235
33 | RRIRDRPPRLPRPRPRPMWGPRP | -0.0471
34 | RRIRDRPPRLPRPRPRPMWVPRP | 0.179
35 | RRIRDRPPRLPRPRPRPMYCPRP | -0.00227
36 | RRIRDRPPRLPRPRPRPNAFPRP | -0.0726
37 | RRIRDRPPRLPRPRPRPNASPRP | 0.527
38 | RRIRDRPPRLPRPRPRPNCHPRP | -0.23
39 | RRIRDRPPRLPRPRPRPNCNPRP | 1.33
40 | RRIRDRPPRLPRPRPRPNELPRP | -0.0493
41 | RRIRDRPPRLPRPRPRPNFFPRP | 0.144
42 | RRIRDRPPRLPRPRPRPNIWPRP | 0.306
43 | RRIRDRPPRLPRPRPRPNLSPRP | -0.115
44 | RRIRDRPPRLPRPRPRPNMPPRP | -0.497
45 | RRIRDRPPRLPRPRPRPNNMPRP | -0.0368
46 | RRIRDRPPRLPRPRPRPNPMPRP | -0.0935
47 | RRIRDRPPRLPRPRPRPNQHPRP | -0.283
48 | RRIRDRPPRLPRPRPRPNQMPRP | -0.0987
49 | RRIRDRPPRLPRPRPRPNRIPRP | -0.152
50 | RRIRDRPPRLPRPRPRPNSDPRP | -0.272
51 | RRIRDRPPRLPRPRPRPNSGPRP | -0.269
52 | RRIRDRPPRLPRPRPRPNSMPRP | 0.0952
53 | RRIRDRPPRLPRPRPRPNTAPRP | -0.0636
54 | RRIRDRPPRLPRPRPRPNTRPRP | -0.238
55 | RRIRDRPPRLPRPRPRPNVWPRP | 0.234

Source: the supplement of paper PMC9112550, “Optimization of the antimicrobial peptide Bac7 by deep mutational scanning” (BMC Biology, 2022)
